In patent publication US20150376265A1 (Genentech, published 2015):
Changes are numbered by the printed parent chain. Names may count otherwise. “And” between values parts separate entries of the source, which are not always exact repeats. Equal entries are not always repeated. Where two headings read alike, the source gives them in different places.

What was measured:
[1] = biological target: T1, HCMV gH on virions of strain VR1814 (HCMV, UniProt P12824 24-743); experiment: cell-based or functional assay
T1 sequence: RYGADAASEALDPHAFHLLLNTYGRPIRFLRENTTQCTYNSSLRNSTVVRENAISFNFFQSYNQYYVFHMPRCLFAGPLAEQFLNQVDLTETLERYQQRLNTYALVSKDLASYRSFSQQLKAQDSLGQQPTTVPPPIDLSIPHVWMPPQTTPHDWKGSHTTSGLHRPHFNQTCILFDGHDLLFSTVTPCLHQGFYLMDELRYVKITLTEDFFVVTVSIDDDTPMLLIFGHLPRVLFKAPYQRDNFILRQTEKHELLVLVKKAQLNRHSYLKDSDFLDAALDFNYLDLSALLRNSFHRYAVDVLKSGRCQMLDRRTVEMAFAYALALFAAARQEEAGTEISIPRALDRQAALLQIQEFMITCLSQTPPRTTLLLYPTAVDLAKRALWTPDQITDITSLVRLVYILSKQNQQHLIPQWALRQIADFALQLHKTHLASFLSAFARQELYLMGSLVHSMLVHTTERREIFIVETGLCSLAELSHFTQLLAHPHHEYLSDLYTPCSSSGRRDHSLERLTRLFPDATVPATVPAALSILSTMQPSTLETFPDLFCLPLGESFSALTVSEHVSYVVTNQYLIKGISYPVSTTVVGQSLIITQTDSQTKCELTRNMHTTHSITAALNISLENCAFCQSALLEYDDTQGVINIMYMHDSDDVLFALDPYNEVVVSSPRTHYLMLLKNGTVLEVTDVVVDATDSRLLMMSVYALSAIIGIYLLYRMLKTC

[2] = biological target: T1, HCMV gH on virions of strain VR1814; experiment: cell-based or functional assay; remark: listed apart in the source
[3] = biological target: T1, HCMV gH on virions of strain VR1814; experiment: cell-based or functional assay; remark: listed apart in the source
[4] = biological target: T1, HCMV gH on virions of strain VR1814; experiment: cell-based or functional assay; remark: listed apart in the source
[5] = biological target: T1, HCMV gH on virions of strain VR1814; experiment: cell-based or functional assay; remark: listed apart in the source
[6] = biological target: T1, HCMV gH on virions of strain VR1814; experiment: cell-based or functional assay; remark: listed apart in the source
[7] = biological target: T1, HCMV gH on virions of strain VR1814; experiment: cell-based or functional assay; remark: listed apart in the source
[8] = biological target: T2, soluble baculovirus-expressed gH/gL (HCMV, UniProt P12824 24-720; P16832 31-278); experiment: competition phage ELISA: phage-displayed Fab with serially diluted soluble gH/gL, free phage caught on coated gH/gL
T2 construct: also called gH/gL dimer produced in baculovirus; baculovirus expressed, secreted gH/gL
T2 sequence 1: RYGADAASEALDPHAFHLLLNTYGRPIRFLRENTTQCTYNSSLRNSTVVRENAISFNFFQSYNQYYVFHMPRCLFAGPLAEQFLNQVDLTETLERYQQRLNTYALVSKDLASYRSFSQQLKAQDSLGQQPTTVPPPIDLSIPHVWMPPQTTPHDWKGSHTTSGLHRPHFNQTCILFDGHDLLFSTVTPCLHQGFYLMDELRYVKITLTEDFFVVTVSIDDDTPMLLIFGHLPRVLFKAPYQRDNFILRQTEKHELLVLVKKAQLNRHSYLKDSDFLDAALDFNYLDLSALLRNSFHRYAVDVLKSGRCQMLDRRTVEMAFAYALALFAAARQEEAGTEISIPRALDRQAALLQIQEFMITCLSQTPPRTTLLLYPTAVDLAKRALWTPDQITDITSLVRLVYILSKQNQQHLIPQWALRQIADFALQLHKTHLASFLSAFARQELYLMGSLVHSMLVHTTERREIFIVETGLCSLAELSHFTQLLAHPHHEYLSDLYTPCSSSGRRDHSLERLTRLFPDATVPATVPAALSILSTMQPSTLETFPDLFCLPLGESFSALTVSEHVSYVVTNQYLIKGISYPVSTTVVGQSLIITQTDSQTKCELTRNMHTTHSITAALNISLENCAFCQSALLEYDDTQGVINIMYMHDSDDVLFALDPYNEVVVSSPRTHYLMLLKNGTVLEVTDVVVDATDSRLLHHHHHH
T2 sequence 2: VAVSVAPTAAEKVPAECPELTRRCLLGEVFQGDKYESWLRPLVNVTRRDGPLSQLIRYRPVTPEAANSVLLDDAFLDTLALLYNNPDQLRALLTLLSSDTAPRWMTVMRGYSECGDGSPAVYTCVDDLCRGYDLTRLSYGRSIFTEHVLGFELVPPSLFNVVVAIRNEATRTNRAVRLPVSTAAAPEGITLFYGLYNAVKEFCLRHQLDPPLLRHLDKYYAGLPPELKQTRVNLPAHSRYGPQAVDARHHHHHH

B1: MSL-109 (antibody, V domains shown)
VH: EEQVLESGGGLVKPGGSLRLSCAASGFTFSPYSVFWVRQAPGKGLEWVSSINSDSTYKYYADSVKGRFTISRDNAENSIFLQMNSLRAEDTAVYYCARDRSYYAFSSGSLSDYYYGLDVWGQGTLVTVSS
VL: DIVMTQSPLSLSVTPGEPASISCRSSQSLLHTNGYNYLDWYVQKPGQSPQLLIYLASNRASGVPDRFSGSGSGTDFTLKISRVETEDVGVYYCMQALQIPRTFGQGTKVEIK
Question: What does the source list for B1?
Answer: Epithelial EC50 (first pair of columns), neutralisation [1]: 0.3 µg/mL; Epithelial EC50 (second pair of columns), neutralisation [1]: 0.48 µg/mL; Fibroblast EC50, neutralisation [1]: 0.73 µg/mL; MDM EC50, neutralisation [1]: 0.04 µg/mL; EC50, neutralisation of HCMV strain VR1814 on endothelial cells [2]: 0.0764 µg/mL; EC50, neutralisation of HCMV strain VR1814 on epithelial cells [2]: 0.164 µg/mL; EC50, neutralisation of HCMV strain VR1814 on fibroblasts [2]: 0.389 µg/mL

B2: MSL-109 Fab fragment (WT) (Fab, V domains shown)
VH: B1 VH
VL: B1 VL
Question: How did the “EC50, inhibition of HCMV entry into ARPE-19 cells, Fab fragments from E. coli” value [3] turn out when B2 was run?
Answer: Its value is 6200 pM.

B3: HB1 (D53N/T55R) (antibody, V domains shown)
VH: B1 VH with D54N, T56R
VL: B1 VL
Question: Which “HB1 EC50, neutralisation of hu8G8 - mutant virus 1 (UL131 Q47K, gH unchanged)” value [4] does the source give for B3 here?
Answer: Its value is 0.18 µg/mL.

Question: And the “HB1 EC50, neutralisation of hu8G8 - mutant virus 2 (UL131 K51E, gH unchanged)” value [4]?
Answer: Its value is 0.07 µg/mL.

Question: What about the “HB1 EC50, neutralisation of hu8G8 - mutant virus 3 (UL131 D46N, gH unchanged)” value [4] of the same binder?
Answer: The value was 0.06 µg/mL.

Question: And the “HB1 EC50, neutralisation of the No Ab control virus” value [4]?
Answer: Its value is 0.22 µg/mL.

Question: What about the “EC50 of HB1 in the presence of hu8G8 at .000128 µg/ml” value [5] of the same binder?
Answer: The value was 0.041 µg/mL.

Question: What about the “EC50 of HB1 in the presence of hu8G8 at .00064 µg/ml” value [5] of the same binder?
Answer: The value was 0.043 µg/mL.

Question: What about the “EC50 of HB1 in the presence of hu8G8 at .0032 µg/ml” value [5] of the same binder?
Answer: The value was 0.035 µg/mL.

Question: What about the “EC50 of HB1 with hu8G8 at 0 µg/ml” value [5] of the same binder?
Answer: The value was 0.03 µg/mL.

Question: And the “EC50, block of viral entry into fibroblasts” value [3]?
Answer: The value was 0.11 µg/ml and 0.7 nM.

Question: And the “HB1 EC50, neutralisation of the No Ab control virus” value [6]?
Answer: The value was 0.04 µg/mL.

Question: What about the “Epithelial EC50 (first pair of columns), neutralisation” value [1] of the same binder?
Answer: The value was 0.05 µg/mL.

Question: And the “Epithelial EC50 (second pair of columns), neutralisation” value [1]?
Answer: Its value is 0.03 µg/mL.

Question: What about the “Fibroblast EC50, neutralisation” value [1] of the same binder?
Answer: The value was 0.11 µg/mL.

Question: What about the “MDM EC50, neutralisation” value [1] of the same binder?
Answer: The value was 0.03 µg/mL.

Question: And the “EC50 on epithelial cells, HB1 alone” value [7]?
Answer: The value was 0.063 µl/ml.

B4: MSL-109 Fab variant H2-D53S (Fab, name in Kabat numbering, V domains shown)
VH: B1 VH with D54S
VL: B1 VL
Question: How did the IC50 [8] turn out when B4 was run?
Answer: The IC50 was 100 pM.

B5: MSL-109 Fab variant H2-T55R (Fab, name in Kabat numbering, V domains shown)
VH: B1 VH with T56R
VL: B1 VL
Question: B5 was tested. Which IC50 [8] did it give?
Answer: Its IC50 is 170 pM.

B6: MSL-109 Fab variant H2-D53M/T55R (Fab, name in Kabat numbering, V domains shown)
VH: B1 VH with D54M, T56R
VL: B1 VL
Question: Which IC50 [8] does the source give for B6 here?
Answer: The IC50 was 70 pM.

B7: MSL-109 Fab variant H2-D53T (Fab, name in Kabat numbering, V domains shown)
VH: B1 VH with D54T
VL: B1 VL
Question: Which IC50 [8] does the source give for B7 here?
Answer: Its IC50 is 60 pM.

B8: HB1 Fab fragment, H2-D53N/T55R (HB1) (Fab, V domains shown)
VH: B1 VH with D54N, T56R
VL: B1 VL
Question: How did the “EC50, inhibition of HCMV entry into ARPE-19 cells, Fab fragments from E. coli” value [3] turn out when B8 was run?
Answer: The value was 150 pM.

B9: MSL-109 Fab variant H2-D53L/T55R (Fab, name in Kabat numbering, V domains shown)
VH: B1 VH with D54L, T56R
VL: B1 VL
Question: With B9 as the binder, how does the IC50 [8] read?
Answer: The IC50 was 20 pM.

B10: HB2 Fab fragment, H2-D53Q/T55R (HB2) (Fab, name in Kabat numbering, V domains shown)
VH: B1 VH with D54Q, T56R
VL: B1 VL
Question: Which IC50 [8] does the source give for B10 here?
Answer: The IC50 was 10 pM.

B11: MSL-109 Fab variant H2-D53L (Fab, name in Kabat numbering, V domains shown)
VH: B1 VH with D54L
VL: B1 VL
Question: With B11 as the binder, how does the IC50 [8] read?
Answer: Its IC50 is 20 pM.

B12: MSL-109 Fab variant H2-D53M (Fab, name in Kabat numbering, V domains shown)
VH: B1 VH with D54M
VL: B1 VL
Question: With B12 as the binder, how does the IC50 [8] read?
Answer: The IC50 was 50 pM.

B13: MSL-109 Fab variant H2-D53F/T55R (Fab, name in Kabat numbering, V domains shown)
VH: B1 VH with D54F, T56R
VL: B1 VL
Question: How did the IC50 [8] turn out when B13 was run?
Answer: The IC50 was 10 pM.

B14: MSL-109 Fab variant H2-D53T/T55R (Fab, name in Kabat numbering, V domains shown)
VH: B1 VH with D54T, T56R
VL: B1 VL
Question: B14 was tested. Which IC50 [8] did it give?
Answer: The IC50 was 30 pM.

B15: MSL-109 Fab variant H2-D53S/T55R (Fab, name in Kabat numbering, V domains shown)
VH: B1 VH with D54S, T56R
VL: B1 VL
Question: Which IC50 [8] does the source give for B15 here?
Answer: The IC50 was 30 pM.

B16: MSL-109 Fab variant H2-D53N (Fab, name in Kabat numbering, V domains shown)
VH: B1 VH with D54N
VL: B1 VL
Question: Which IC50 [8] does the source give for B16 here?
Answer: The IC50 was 60 pM.
